Where no end group is shown, it is not given here. [ ]: non-standard residue; d: D form.
Target: Toll-like receptor 4 (TLR4) on monocyte-derived iDC
Test: cell-based or functional assay

B1: All-D-TTNYT (RAP-103) (peptide)
peptide: [dT][dT][dN][dY][dT]
  IC50 for inhibition of LPS (100 ng/mL) induced TNF-α secretion in monocyte-derived iDC (ELISA of supernatants, FIG. 5): ~0.1 pM

— patent publication US20140323393A1 (CREATIVE BIO PEPTIDES, published 2014)
